Source: patent publication US20250043302A1, “MUTATED HYDROXYPHENYLPYRUVATE DIOXYGENASE POLYPEPTIDE, AND CODING GENE AND USE THEREOF” (BEIJING DABEINONG BIOTECHNOLOGY CO., LTD., priority 2021, published 2025)

Legend:
Assay type in all cases: in vivo
[1] = test system: Arabidopsis thaliana T1 plants; test: Topramezone tolerance of transgenic Arabidopsis thaliana T1 plants (spray, bleached leaf area grade, damage score); conditions: 7 DAT, Table 4; for Classification and statistics of the grade of pesticide damage: Grade 0 / Classification and statistics of the grade of pesticide damage: Grade 1 / Classification and statistics of the grade of pesticide damage: Grade 2 / Classification and statistics of the grade of pesticide damage: Grade 3: number of plants; for Scores: pesticide damage score 0-100
Outline: (§1)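 Read-out: per-plant damage grade 0–3 from proportion of bleached leaf area at 7 DAT (1 <50%, 2 >50%, 3 100%). Plants were T1 transformants, glufosinate-selected, plus wild-type CK, sprayed 18 days post-sowing. Rates: topramezone 25–200, isoxaflutole 35–280, mesotrione 52.5–420 g ai/ha.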

[2] = test system: Arabidopsis thaliana T1 plants; test: Isoxaflutole tolerance of transgenic Arabidopsis thaliana T1 plants (spray, bleached leaf area grade, damage score); parameters: Scores (pesticide damage): scale not given here; conditions: spray, Arabidopsis thaliana T1 plants; for Classification and statistics of the grade of pesticide damage: Grade 0 (number of plants) / Classification and statistics of the grade of pesticide damage: Grade 1 (number of plants) / Classification and statistics of the grade of pesticide damage: Grade 2 (number of plants) / Classification and statistics of the grade of pesticide damage: Grade 3 (number of plants): 16 plants
Outline: as §1

[3] = test system: Arabidopsis thaliana T1 plants; test: Mesotrione tolerance of transgenic Arabidopsis thaliana T1 plants (spray, bleached leaf area grade, damage score); parameters: Scores: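 damage score 0-100 computed as Σ(N×S)/(T×M)×100 over grades 0-3 with higher meaning more damage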; conditions: Arabidopsis thaliana T1 plants; for Grade 0 (classification and statistics of the grade of pesticide damage; number of plants) / Grade 1 (classification and statistics of the grade of pesticide damage; number of plants) / Grade 2 (classification and statistics of the grade of pesticide damage; number of plants) / Grade 3 (classification and statistics of the grade of pesticide damage; number of plants): 16 plants
Outline: as §1

[4] = isoxaflutole 35 g ai/ha (0.5x field concentration)
[5] = isoxaflutole 70 g ai/ha (1x field concentration)

B1: BnHPPD-02: nucleotide sequence encoding wild-type Brassica napus HPPD; vector DBN11742 (nucleic acid)
DNA: ATGGGACATGAAAACGCGGCAGTGTGTGAAACTCAACAACATGATGACGCCGCCTCCCCGGGGTTTAAACTTGTCGGGTTCTCAAAATTTGTTAGGAAGAATCCAAAGTCTGACAAGTTCAAGGTGAAACGCTTCCACCACATCGAGTTCTGGTGCGGGGATGCAACAAATGTTTCACGCCGCTTTTCATGGGGACTAGGAATGAGGTTTAGCGCAAAGAGTGATCTCTCCACTGGTAATATGGTTCATGCGAGCTACTTGCTCACATCTGGAGACCTGAGATTCCTCTTCACCGCACCATATTCTCCCTCCCTGTCAGCTGGTGAAGCTCAGCCTTCAGCAACTGCAAGTATCCCTTCGTTTGATCATGCATCGTGCAGGTCTTTCTTCAGTTCACATGGACTCGGCGTCAGAGCAGTAGCGATCGAAGTAGAGGATGCTGAATCAGCTTTCTCCATATCTGTCGCCAACGGCGCGGTGCCTTCTTCTCCACCAAACGTCTTGAATGGTGCTGTTACCATTGCTGAGGTGAAGCTGTACGGAGATGTTGTTTTAAGATATGTTTCATATTACAATGGGACCGTTTCTTTTCTTCCCGGCTTTGAATCTGTTGATGATACTTCTTCCTTCCCTCTTGATTATGGGATCAGGCGGCTGGACCACGCCGTCGGCAACGTGCCGGAGTTAGGTCCTGCTTTGACATATCTTGCCGGCTTCACTGGATTCCATCAATTTGCAGAGTTTACGGCTGACGACGTGGGGACCGCGGAGAGTGGGCTGAACTCAGCAGTCTTGGCCAACAATGATGAAATGGTGCTCCTCCCCATCAATGAACCTGTGCATGGAACAAAGAGAAAGTCGCAGATTCAAACATTTTTAGAGCACAATGAGGGAGCTGGGCTACAGCACCTCGCATTGATGTCAGAAGATATTTTTCGAACGTTGAGGGAGATGCGGAAACGATCTGGTGTAGGCGGCTTTGACTTCATGCCATCCCCTCCGCCAACCTACTACAAGAACCTGAAGAAGAGGGTTGGAGACGTCCTTTCCGAGGAGCAAATTGAAGAATGTGAGGAGCTTGGAATTCTGGTGGACAGAGATGATCAAGGAACACTACTTCAGATCTTCACAAAACCATTGGGCGACAGGCCAACGATATTCATTGAGATCATTCAGCGCGTTGGATGCATGAAGCGTGATGAGGAAGGGAAGGTCTACCAGAGTGGCGGTTGTGGTGGATTTGGAAAAGGAAATTTTTCTGAGCTGTTCAAAAGCATAGAAGAGTATGAGAAAACATTGGAGGCCAAGCAGCTTGTTGGTTGA
modifications: BnHPPD-02 Nucleotide Sequence
notes: vector DBN11742
- Classification and statistics of the grade of pesticide damage: Grade 0 ([1]; topramezone 25 g ai/ha (1×)): 0
- Classification and statistics of the grade of pesticide damage: Grade 1 ([1]; topramezone 25 g ai/ha (1×)): 0
- Classification and statistics of the grade of pesticide damage: Grade 2 ([1]; topramezone 25 g ai/ha (1×)): 0
- Classification and statistics of the grade of pesticide damage: Grade 3 ([1]; topramezone 25 g ai/ha (1×)): 16
- Classification and statistics of the grade of pesticide damage: Grade 0 ([1]; topramezone 100 g ai/ha (4×)): 0
- Classification and statistics of the grade of pesticide damage: Grade 1 ([1]; topramezone 100 g ai/ha (4×)): 0
- Classification and statistics of the grade of pesticide damage: Grade 2 ([1]; topramezone 100 g ai/ha (4×)): 0
- Classification and statistics of the grade of pesticide damage: Grade 3 ([1]; topramezone 100 g ai/ha (4×)): 16
- Scores ([1]; topramezone 25 g ai/ha (1×)): 100
- Scores ([1]; topramezone 100 g ai/ha (4×)): 100
- Resistance evaluation ([1]; topramezone 25 g ai/ha (1×)): non-resistant (non-resistant plants (scores 68-100))
- Resistance evaluation ([1]; topramezone 100 g ai/ha (4×)): non-resistant (non-resistant plants (scores 68-100))
- Resistance evaluation [2, 4]: Non-resistant
- Scores (pesticide damage) [2, 4]: 100
- Classification and statistics of the grade of pesticide damage: Grade 0 (number of plants) [2, 4]: 0
- Classification and statistics of the grade of pesticide damage: Grade 1 (number of plants) [2, 4]: 0
- Classification and statistics of the grade of pesticide damage: Grade 2 (number of plants) [2, 4]: 0
- Classification and statistics of the grade of pesticide damage: Grade 3 (number of plants) [2, 4]: 16
- Resistance evaluation [2, 5]: Non-resistant
- Scores (pesticide damage) [2, 5]: 100
- Classification and statistics of the grade of pesticide damage: Grade 0 (number of plants) [2, 5]: 0
- Classification and statistics of the grade of pesticide damage: Grade 1 (number of plants) [2, 5]: 0
- Classification and statistics of the grade of pesticide damage: Grade 2 (number of plants) [2, 5]: 0
- Classification and statistics of the grade of pesticide damage: Grade 3 (number of plants) [2, 5]: 16
- Resistance evaluation ([3]; mesotrione 52.5 g ai/ha): Non-resistant
- Scores ([3]; mesotrione 52.5 g ai/ha): 100
- Grade 0 (classification and statistics of the grade of pesticide damage; number of plants) ([3]; mesotrione 52.5 g ai/ha): 0
- Grade 1 (classification and statistics of the grade of pesticide damage; number of plants) ([3]; mesotrione 52.5 g ai/ha): 0
- Grade 2 (classification and statistics of the grade of pesticide damage; number of plants) ([3]; mesotrione 52.5 g ai/ha): 0
- Grade 3 (classification and statistics of the grade of pesticide damage; number of plants) ([3]; mesotrione 52.5 g ai/ha): 16
- Resistance evaluation ([3]; mesotrione 105 g ai/ha): Non-resistant
- Scores ([3]; mesotrione 105 g ai/ha): 100
- Grade 0 (classification and statistics of the grade of pesticide damage; number of plants) ([3]; mesotrione 105 g ai/ha): 0
- Grade 1 (classification and statistics of the grade of pesticide damage; number of plants) ([3]; mesotrione 105 g ai/ha): 0
- Grade 2 (classification and statistics of the grade of pesticide damage; number of plants) ([3]; mesotrione 105 g ai/ha): 0
- Grade 3 (classification and statistics of the grade of pesticide damage; number of plants) ([3]; mesotrione 105 g ai/ha): 16
